T1: human PMEL (Homo sapiens, UniProt P40967)
T1 sequence (P40967 25-661): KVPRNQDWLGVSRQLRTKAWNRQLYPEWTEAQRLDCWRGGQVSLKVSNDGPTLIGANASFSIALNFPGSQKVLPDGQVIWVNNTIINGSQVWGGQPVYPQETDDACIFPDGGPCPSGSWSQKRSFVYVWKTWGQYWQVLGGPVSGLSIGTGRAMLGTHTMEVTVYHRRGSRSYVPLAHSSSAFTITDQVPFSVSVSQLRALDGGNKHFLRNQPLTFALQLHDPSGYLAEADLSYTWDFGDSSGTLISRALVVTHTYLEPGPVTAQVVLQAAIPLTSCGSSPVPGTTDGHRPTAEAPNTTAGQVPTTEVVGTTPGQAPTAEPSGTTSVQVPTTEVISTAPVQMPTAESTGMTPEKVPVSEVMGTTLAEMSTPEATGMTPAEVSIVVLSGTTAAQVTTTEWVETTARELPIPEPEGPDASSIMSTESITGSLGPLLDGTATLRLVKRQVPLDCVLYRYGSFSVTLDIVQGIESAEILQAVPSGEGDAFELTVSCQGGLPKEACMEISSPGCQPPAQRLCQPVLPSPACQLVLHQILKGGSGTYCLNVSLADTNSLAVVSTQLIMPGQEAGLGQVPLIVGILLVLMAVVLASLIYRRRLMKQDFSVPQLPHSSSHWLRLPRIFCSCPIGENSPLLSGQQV

T2: human PMEL17 (Homo sapiens, UniProt P40967)
T2 construct: G-361 melanoma cell line expresses human PMEL17 at a lower level compared to the HKB11-human PMEL17 overexpressing cell line; endogenous in cells; host or cells: G-361 (human melanoma)
T2 sequence (P40967 25-661): T1 sequence (P40967 25-661)

T3: mouse PMEL17 (Mus musculus, UniProt Q60696)
T3 construct: B16-F10 (mouse PMEL17 expressing melanoma); endogenous in cells; host or cells: B16-F10 (mouse melanoma)
T3 sequence (Q60696 24-626): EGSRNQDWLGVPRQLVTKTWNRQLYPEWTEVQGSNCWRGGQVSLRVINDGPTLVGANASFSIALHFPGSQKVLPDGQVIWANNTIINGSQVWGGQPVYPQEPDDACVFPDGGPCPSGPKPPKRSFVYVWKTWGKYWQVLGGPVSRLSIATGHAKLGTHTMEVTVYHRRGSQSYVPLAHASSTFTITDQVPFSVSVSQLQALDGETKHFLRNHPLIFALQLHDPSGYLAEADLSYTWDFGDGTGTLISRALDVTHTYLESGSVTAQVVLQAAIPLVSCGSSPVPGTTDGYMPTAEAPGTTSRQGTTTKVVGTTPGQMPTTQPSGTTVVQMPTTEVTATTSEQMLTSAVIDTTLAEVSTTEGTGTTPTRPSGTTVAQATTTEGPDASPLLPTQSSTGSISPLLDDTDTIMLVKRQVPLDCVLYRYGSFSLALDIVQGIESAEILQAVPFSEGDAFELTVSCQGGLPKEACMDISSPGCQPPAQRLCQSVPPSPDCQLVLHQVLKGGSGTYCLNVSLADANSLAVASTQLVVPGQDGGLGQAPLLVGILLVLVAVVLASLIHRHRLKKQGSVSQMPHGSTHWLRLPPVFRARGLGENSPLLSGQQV

B1: G1 LC 3J: anti-PMEL antibody G1 with 3J light chain (antibody, V domains shown)
VH: QVQLVQSGAEVKKPGSSVKVSCKASGGTFSDYAITWVRQAPGQGLEWMGGIIPIFGTANYAQKFQGRVTITADESTSTAYMELSSLRSEDTAVYYCAREGGLLTDISYSRYWFAYWGQGTLVTVSS
VL: SYELTQPLSVSVALGQTARITCSGDALRDKFVYWYQQKPGQAPVLVIYDDNNRPSGIPERFSGSNSGNTATLTISRAQAGDEADYYCQSWDHSYSLVVFGGGTKLTVL
B2: Y010417: anti-PMEL17 antibody (IgG) (antibody, V domains shown)
VH: EVQLVQSGAEVKKPGESLKISCKGSGYSFTSYWIGWVRQMPGKGLEWMGIIYPGDSDTRYSPSFQGQVTISADKSISTAYLQWSSLKASDTAMYYCARGSSAASGLSGDLWGQGTLVTVSS
VL: DIQMTQSPSSLSASVGDRVTITCRASQSISSYLNWYQQKPGKAPKLLIYAASSLQSGVPSRFSGSGSGTDFTLTISSLQPEDFATYYCQQDYYSPFTFGQGTKVEIK

Tests used:
human PMEL = biological target: T1, human PMEL; test: SPR epitope binning (competitive binding assay, Biacore T200); details: FIG. 20B-20C
From the text: SPR was used to assess epitope binning for anti-PMEL antibodies on a T200 Biacore instrument (catalog #28975001, GE Healthcare Life Sciences).
Surface Plasmon Resonance (SPR) is a technique to measure bimolecular interactions in real-time in a label free environment. Molecules are immobilized on a sensor surface over which a sample solution flows. The interaction between the immobilized molecule and the flowing sample causes a refractive index change. The refractive index change is an altering of the angle at which reduced intensity polarized light is reflected from the supporting glass plane. This angle change is caused by binding or dissociation of molecules from the sensor surface and is proportional to the mass of bound material and is recorded by the instrument in a sensorgram. […] From the association and dissociation event responses, an association rate (ka), a dissociation rate (kd) and an overall affinity (KD) are determined. For epitope binning, KDs are not determined.
In the first step, G1 LC 3J and 17A9 antibodies were directly immobilized onto a CM5 chip surface via Amine Coupling to achieve approximately 2000RU respectively on Fc2 and Fc3. […] The immobilized antibodies on Fc2 and Fc3 are the base antibodies in the experiment […]
The data was analyzed using the Biacore T200 Evaluation Software version 3.0.

human PMEL17 = biological target: T2, human PMEL17; test: Apparent affinity by FACS titration of IgGs on G-361 melanoma cell line; type: binding; details: G-361, PE-labelled detection antibody; read-out: FACS EC50 (nM) G-361 (PE)
Experimental: (§1) Purified IgGs were titrated on a variety of PMEL17 expressing and PMEL17 non expressing cell lines (for control) to determine EC50 values. Cells were harvested using Accutase, adjusted to ˜4×10^6 cells/ml into FACS buffer (PBS, 3% FCS and 0.02% Na-Azide) and kept on ice to avoid internalization. 15 μl of cell suspension/well were transferred into 384 well V-bottom plates (Greiner, Cat #781280) and incubated with 15 μl of IgGs at different concentrations (most commonly from 200 to 3.5×10−3 nM) for 1 hour at 4° C., gently shaking. Following incubation, cells were washed three times with FACS buffer. After each washing step, cells were centrifuged (250×g, 5 min, 4° C.) and carefully resuspended. 15 μl of detection antibody conjugated to PE (PE-conjugated goat anti-human IgG, F(ab′)2 fragment specific, 1:150 in FACS buffer; Jackson Immuno Research, #109-116-097) or Alexa Fluor (Alexa Fluor-conjugated goat anti-human IgG, F(ab′)2 fragment specific, 1:150 in FACS buffer; Jackson Immuno Research, #109-606-097) were added and samples were incubated for 45 minutes to 1 hour on ice in the dark, gently shaking. After 3 washing steps, cells were resuspended in 30 μl of FACS buffer and samples were measured using the IntelliCyt HTFC device. EC50 values were calculated using the Graphpad Prism software. G-361 melanoma cell line expresses human PMEL17 at a lower level compared to the HKB11-human PMEL17 overexpressing cell line, and therefore allows a more precise ranking of the clones depending on their apparent affinity on cells.
(§2) The cross-specificity of the IgGs was evaluated in does response FACS on G-361 (human melanoma), HKB11-cyno-PMEL17, HKB11-rat PMEL17 and B16-F10 (mouse PMEL17 expressing melanoma) (Table 3). […]

rat PMEL17 = test: Apparent affinity by FACS titration of IgGs on HKB11-rat PMEL17 cells; type: binding; details: Alexa Fluor
Experimental: Purified IgGs were titrated on a variety of PMEL17 expressing and PMEL17 non expressing cell lines (for control) to determine EC50 values. Cells were harvested using Accutase, adjusted to ˜4×10^6 cells/ml into FACS buffer (PBS, 3% FCS and 0.02% Na-Azide) and kept on ice to avoid internalization. 15 μl of cell suspension/well were transferred into 384 well V-bottom plates (Greiner, Cat #781280) and incubated with 15 μl of IgGs at different concentrations (most commonly from 200 to 3.5×10−3 nM) for 1 hour at 4° C., gently shaking. Following incubation, cells were washed three times with FACS buffer. After each washing step, cells were centrifuged (250×g, 5 min, 4° C.) and carefully resuspended. […] After 3 washing steps, cells were resuspended in 30 μl of FACS buffer and samples were measured using the IntelliCyt HTFC device. EC50 values were calculated using the Graphpad Prism software. […]
as §2

mouse PMEL17 = biological target: T3, mouse PMEL17; test: Apparent affinity by FACS titration of IgGs on B16-F10 melanoma cells; type: binding; details: Alexa Fluor
Experimental: as §1
(§3) The cross-specificity of the IgGs was evaluated in does response FACS on G-361 (human melanoma), HKB11-cyno-PMEL17, HKB11-rat PMEL17 and B16-F10 (mouse PMEL17 expressing melanoma) (Table 3). Testing on G-361 was performed using a detection antibody labelled to PE. In contrast, an Alexa-Fluor labelled detection antibody had to be used for testing the candidates on the other cell lines so as to reach detectable signals.

UACC-62 = test: FACS titration of IgGs on UACC-62 cells; type: binding; details: UACC-62, PE-labelled detection antibody
Experimental: as §1

PMEL17 = test: Cross-reactivity (cross-specificity profile) of anti-PMEL17 IgGs in dose response FACS; type: binding; set-up: key: h/c/r/m: human/cyno/rat/mouse; h/c/r: human/cyno/rat; h/c/(m): human/cyno/mouse; h/c: human/cyno; details: h human, c cyno, r rat, m mouse
Experimental: as §3
IgGs were classified into several epitope groups according to their cross-specificity profiles.

| Molecule | epitope binning (human PMEL) | EC50 (human PMEL17) [nM] | EC50 (rat PMEL17) [nM] | EC50 (mouse PMEL17) [nM] | UACC-62 (PE) (UACC-62) | Cross spe profile (based on C14 detection ab) (PMEL17) |
| --- | --- | --- | --- | --- | --- | --- |
| B1 | bind to different epitopes |  |  |  |  |  |
| B2 |  | 2.8 | > 100 | > 100 | Negative | h/c |
